Assay results published in publication PMC11555707, “Histone deacetylase 7 activates 6-phosphogluconate dehydrogenase via an enzyme-independent mechanism that involves the N-terminal protein-protein interaction domain” (Biochemical Journal, 2024).

Biological target: the molecule itself
Assay: cross-linking; lysates of transfected HEK293 cells (50 mM HEPES, 150 mM NaCl, 0.5% Triton X-100) incubated with 2 mM disuccinimidyl suberate (DSS) for 30 min at room temperature, quenched with 50 mM Tris-HCl; immunoblot with anti-Flag; 6PGD alone or with HDAC7, N-HDAC7, C-HDAC7 or SOX7

B1: 6-phosphogluconate dehydrogenase (6PGD), Flag-tagged (enzyme, mouse, UniProt Q9DCD0 1-483, looked up)
chain: MAQADIALIGLAVMGQNLILNMNDHGFVVCAFNRTVSKVDDFLANEAKGTKVVGAQSLKDMVSKLKKPRRVILLVKAGQAVDDFIEKLVPLLDTGDIIIDGGNSEYRDTTRRCRDLKAKGILFVGSGVSGGEEGARYGPSLMPGGNKEAWPHIKAIFQAIAAKVGTGEPCCDWVGDEGAGHFVKMVHNGIEYGDMQLICEAYHLMKDVLGMRHEEMAQAFEEWNKTELDSFLIEITANILKYRDTDGKELLPKIRDSAGQKGTGKWTAISALEYGMPVTLIGEAVFARCLSSLKEERVQASQKLKGPKVVQLEGSKKSFLEDIRKALYASKIISYAQGFMLLRQAATEFGWTLNYGGIALMWRGGCIIRSVFLGKIKDAFERNPELQNLLLDDFFKSAVDNCQDSWRRVISTGVQAGIPMPCFTTALSFYDGYRHEMLPANLIQAQRDYFGAHTYELLTKPGEFIHTNWTGHGGSVSSSSYNA
notes: mouse 6-phosphogluconate dehydrogenase (6PGD); A shorter ~40 kDa form (6PGD-s), also detected by anti-Flag, arises in the same cells; also called full-length 6PGD; source: HEK293, transfected (pCMV-based construct), in lysate
B1 was tested, and the “stoichiometry N” value was 2.
